Results on six molecules are retold here after patent US20210393776A1 (FABION PHARMACEUTICALS, published 2021).

Where two headings read alike, the source gives them in different places.

Test [1] deals with T1, recombinant cyno CD3epsilon/delta Fc(K-H) heterodimer (cynomolgus).
T1 construct: also called cynomolgus CD3epsilon/delta; recombinant cyno CD3epsilon/delta heterodimeric Fc protein; copies: 1 + 1
As to the kind of experiment: ELISA, immobilised antigen, biotinylated protein, streptavidin-HRP, ABTS, OD405.

Test [2] addresses T2, human CD3epsilonAA1-27.Fc (human).
T2 construct: also called recombinant human CD3epsilon N-terminal peptide (aa1-27.Fc fusion); CD3epsilon N-terminal amino acid 1-27 peptide Fc fusion
Described as above.

Test [3] concerns the target T3, full length human EpCAM on CHO cells (human, UniProt P16422 24-314).
T3 construct: CHO cells stably expressing full length human EpCAM; also called hu-EpCAM-FL; human EpCAM-FL
T3 sequence: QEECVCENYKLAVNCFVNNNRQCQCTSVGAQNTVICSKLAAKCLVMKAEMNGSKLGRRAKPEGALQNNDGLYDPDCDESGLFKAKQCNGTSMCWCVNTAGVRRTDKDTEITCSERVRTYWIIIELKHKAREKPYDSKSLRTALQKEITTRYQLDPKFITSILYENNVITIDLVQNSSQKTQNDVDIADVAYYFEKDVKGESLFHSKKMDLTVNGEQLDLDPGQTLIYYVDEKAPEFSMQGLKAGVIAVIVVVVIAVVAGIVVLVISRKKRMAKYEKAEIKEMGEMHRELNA
Put plainly: flow cytometry on CHO cells stably expressing full length human EpCAM, PE detection. On the technique in general: Flow cytometry measures light scatter and fluorescence of single cells or particles in a stream.
Method: (§1) In general, cells were blocked in 1% BSA/PBS for 1 hr at 4 C and antibodies of interest were diluted into 1% BSA/PBS were added to blocked cells for incubation at 4° C. for 1 hr. after one wash with 1% BSA/PBS, staining procedures vary depending on the availability of antibodies or fluorescent antibody conjugate. In some case, direct fluorescence conjugates were used. In other cases, anti affinity tag antibodies (secondary antibody) were used to incubate with the cells followed by anti-species antibody conjugated with a particular fluorophore. In some other experiments, antibody (or other affinity reagent such as streptavidin) with fluorescence conjugate was used directly as secondary antibody (secondary reagent).

For test [4], the target named is T1, recombinant cyno CD3epsilon/delta …. Put plainly: ELISA, immobilised antigen, biotinylated protein, streptavidin-HRP, ABTS, OD405. The source holds these as a separate data set. In general terms: An ELISA detects its analyte on a solid surface through an enzyme-linked reagent.
For test [5], the target named is T2, human CD3epsilonAA1-27.Fc. Described as above. This is another data set of the same source.
Test [6] has as its target T3, full length human EpCAM on CHO cells. As to the kind of experiment: flow cytometry on CHO cells stably expressing full length human EpCAM, PE detection. This is another data set of the same source.
Method: as §1
For test [7], the target named is T1, recombinant cyno CD3epsilon/delta …. Put plainly: ELISA, immobilised antigen, biotinylated protein, streptavidin-HRP, ABTS, OD405. The source holds these as a separate data set.
The target in test [8] is T2, human CD3epsilonAA1-27.Fc. The description is as above. This is another data set of the same source.
Test [9] concerns the target T3, full length human EpCAM on CHO cells. As to the kind of experiment: flow cytometry on CHO cells stably expressing full length human EpCAM, PE detection. This is another data set of the same source.
Method: as §1

B1: EpCAM1.1-(L)-hu-1F3.1 Fab (bispecific antibody)
heavy chain Fd (VH-CH1), unfused: EVQLVESGGGLVQPGGSLRLSCAASGFTFSTYAMNWVRQAPGKGLEWVSRIRSKYNNYATYYADSVKDRFTISRDDSKNTLYLQMNSLRAEDTAVYYCARHGNFGNSYVSWFAYWGQGTMVTVSSASTKGPSVFPLAPCSRSTSESTAALGCLVKDYFPEPVTVSWNSGALTSGVHTFPAVLQSSGLYSLSSVVTVPSSNFGTQTYTCNVDHKPSNTKVDKTVGGGGSHHHHHHH
light chain with anti-EpCAM scFv EpCAM1.1 at the N-terminus: QVQLQQSGGGLVQPGGSLRLSCAASGFTFSNYWMSWVRQAPGKGLEWVANIKQDGSEKFYVDSVKGRFTISRDNAKNSLYLQMNSLRAEDMAVYYCARVGGAWELGYWGQGTLVTVSAGGGGSGGGGSGGGGSGAQSVLTQPPSVSGAPGQRVTISCTGSSSNIGSYYGVHWYQQIPGTAPKLLIYSDTNRPSGVPDRFSGSKSGTSASLAITGLQAEDEADYYCQSYDSSLSGRVFGGGTKVTVLGRAQAVVTQEPSLTVSPGGTVTLTCRSSTGAVTTSNYANWVQQKPGQAPRGLIGGTNKRAPGTPARFSGSLLGGKAALTLSGVQPEDEAEYYCALWYSNLWVFGGGTKLTVLGQPKAAPSVTLFPPSSEELQANKATLVCLISDFYPGAVTVAWKADSSPVKAGVETTTPSKQSNNKYAASSYLSLTPEQWKSHRSYSCQVTHEGSTVEKTVAPTECS
notes: member of group m19; also called EpCAM1.1-(L)-hu-1F3 Fab
For B1, the binding result in [1], in test [2] and in test [3] was “binds” in each case.

B2: EpCAM1.1-(H+L)-hu-1F3.1 Fab (bispecific antibody)
heavy chain Fd with anti-EpCAM scFv EpCAM1.1 at the N-terminus: QVQLQQSGGGLVQPGGSLRLSCAASGFTFSNYWMSWVRQAPGKGLEWVANIKQDGSEKFYVDSVKGRFTISRDNAKNSLYLQMNSLRAEDMAVYYCARVGGAWELGYWGQGTLVTVSAGGGGSGGGGSGGGGSGAQSVLTQPPSVSGAPGQRVTISCTGSSSNIGSYYGVHWYQQIPGTAPKLLIYSDTNRPSGVPDRFSGSKSGTSASLAITGLQAEDEADYYCQSYDSSLSGRVFGGGTKVTVLGRAEVQLVESGGGLVQPGGSLRLSCAASGFTFSTYAMNWVRQAPGKGLEWVSRIRSKYNNYATYYADSVKDRFTISRDDSKNTLYLQMNSLRAEDTAVYYCARHGNFGNSYVSWFAYWGQGTMVTVSSASTKGPSVFPLAPCSRSTSESTAALGCLVKDYFPEPVTVSWNSGALTSGVHTFPAVLQSSGLYSLSSVVTVPSSNFGTQTYTCNVDHKPSNTKVDKTVGGGGSHHHHHHH
light chain with anti-EpCAM scFv EpCAM1.1 at the N-terminus: QVQLQQSGGGLVQPGGSLRLSCAASGFTFSNYWMSWVRQAPGKGLEWVANIKQDGSEKFYVDSVKGRFTISRDNAKNSLYLQMNSLRAEDMAVYYCARVGGAWELGYWGQGTLVTVSAGGGGSGGGGSGGGGSGAQSVLTQPPSVSGAPGQRVTISCTGSSSNIGSYYGVHWYQQIPGTAPKLLIYSDTNRPSGVPDRFSGSKSGTSASLAITGLQAEDEADYYCQSYDSSLSGRVFGGGTKVTVLGRAQAVVTQEPSLTVSPGGTVTLTCRSSTGAVTTSNYANWVQQKPGQAPRGLIGGTNKRAPGTPARFSGSLLGGKAALTLSGVQPEDEAEYYCALWYSNLWVFGGGTKLTVLGQPKAAPSVTLFPPSSEELQANKATLVCLISDFYPGAVTVAWKADSSPVKAGVETTTPSKQSNNKYAASSYLSLTPEQWKSHRSYSCQVTHEGSTVEKTVAPTECS
notes: member of group m19; also called EpCAM1.1-(H+L)-hu-1F3 Fab
Turning to B2, the binding result in [1], in [2] and in test [3] was “binds” each time.

B3: EpCAM1.2-(L)-hu-1F3.1 Fab (bispecific antibody)
heavy chain Fd (VH-CH1), unfused: EVQLVESGGGLVQPGGSLRLSCAASGFTFSTYAMNWVRQAPGKGLEWVSRIRSKYNNYATYYADSVKDRFTISRDDSKNTLYLQMNSLRAEDTAVYYCARHGNFGNSYVSWFAYWGQGTMVTVSSASTKGPSVFPLAPCSRSTSESTAALGCLVKDYFPEPVTVSWNSGALTSGVHTFPAVLQSSGLYSLSSVVTVPSSNFGTQTYTCNVDHKPSNTKVDKTVGGGGSHHHHHHH
light chain with anti-EpCAM scFv EpCAM1.2 at the N-terminus: EVQLVESGGGLVQPGGSLRLSCAASGFTFSNYWMSWVRQAPGKGLEWVANIKQDGSEKFYVDSVKGRFTISRDNAKNSLYLQMNSLRAEDMAVYYCARVGGAWELGYWGQGTLVTVSAGGGGSGGGGSGGGGSGAQSVLTQPPSVSGAPGQRVTISCTGSSSNIGSYYGVHWYQQLPGTAPKLLIYSDTNRPSGVPDRFSGSKSGTSASLAITGLQAEDEADYYCQSYDSSLSGRVFGGGTKLTVLGRAQAVVTQEPSLTVSPGGTVTLTCRSSTGAVTTSNYANWVQQKPGQAPRGLIGGTNKRAPGTPARFSGSLLGGKAALTLSGVQPEDEAEYYCALWYSNLWVFGGGTKLTVLGQPKAAPSVTLFPPSSEELQANKATLVCLISDFYPGAVTVAWKADSSPVKAGVETTTPSKQSNNKYAASSYLSLTPEQWKSHRSYSCQVTHEGSTVEKTVAPTECS
notes: member of group m20; also called EpCAM1.2-(L)-hu-1F3 Fab
Consider B3, for which the binding result in test [4], in test [5] and in [6] was “binds” each time.

B4: EpCAM1.2-(H+L)-hu-1F3.1 Fab (bispecific antibody)
heavy chain Fd with anti-EpCAM scFv EpCAM1.2 at the N-terminus: EVQLVESGGGLVQPGGSLRLSCAASGFTFSNYWMSWVRQAPGKGLEWVANIKQDGSEKFYVDSVKGRFTISRDNAKNSLYLQMNSLRAEDMAVYYCARVGGAWELGYWGQGTLVTVSAGGGGSGGGGSGGGGSGAQSVLTQPPSVSGAPGQRVTISCTGSSSNIGSYYGVHWYQQLPGTAPKLLIYSDTNRPSGVPDRFSGSKSGTSASLAITGLQAEDEADYYCQSYDSSLSGRVFGGGTKMTVLGRAEVQLVESGGGLVQPGGSLRLSCAASGFTFSTYAMNWVRQAPGKGLEWVSRIRSKYNNYATYYADSVKDRFTISRDDSKNTLYLQMNSLRAEDTAVYYCARHGNFGNSYVSWFAYWGQGTMVTVSSASTKGPSVFPLAPCSRSTSESTAALGCLVKDYFPEPVTVSWNSGALTSGVHTFPAVLQSSGLYSLSSVVTVPSSNFGTQTYTCNVDHKPSNTKVDKTVGGGGSHHHHHHH
light chain with anti-EpCAM scFv EpCAM1.2 at the N-terminus: EVQLVESGGGLVQPGGSLRLSCAASGFTFSNYWMSWVRQAPGKGLEWVANIKQDGSEKFYVDSVKGRFTISRDNAKNSLYLQMNSLRAEDMAVYYCARVGGAWELGYWGQGTLVTVSAGGGGSGGGGSGGGGSGAQSVLTQPPSVSGAPGQRVTISCTGSSSNIGSYYGVHWYQQLPGTAPKLLIYSDTNRPSGVPDRFSGSKSGTSASLAITGLQAEDEADYYCQSYDSSLSGRVFGGGTKLTVLGRAQAVVTQEPSLTVSPGGTVTLTCRSSTGAVTTSNYANWVQQKPGQAPRGLIGGTNKRAPGTPARFSGSLLGGKAALTLSGVQPEDEAEYYCALWYSNLWVFGGGTKLTVLGQPKAAPSVTLFPPSSEELQANKATLVCLISDFYPGAVTVAWKADSSPVKAGVETTTPSKQSNNKYAASSYLSLTPEQWKSHRSYSCQVTHEGSTVEKTVAPTECS
notes: member of group m20; also called EpCAM1.2-(H+L)-hu-1F3 Fab
As for B4, the binding result in test [4], in test [5] and in test [6] was “binds” throughout.

B5: EpCAM1.2-(H)-hu-1F3.1 Fab (bispecific antibody)
heavy chain Fd with anti-EpCAM scFv EpCAM1.2 at the N-terminus: EVQLVESGGGLVQPGGSLRLSCAASGFTFSNYWMSWVRQAPGKGLEWVANIKQDGSEKFYVDSVKGRFTISRDNAKNSLYLQMNSLRAEDMAVYYCARVGGAWELGYWGQGTLVTVSAGGGGSGGGGSGGGGSGAQSVLTQPPSVSGAPGQRVTISCTGSSSNIGSYYGVHWYQQLPGTAPKLLIYSDTNRPSGVPDRFSGSKSGTSASLAITGLQAEDEADYYCQSYDSSLSGRVFGGGTKMTVLGRAEVQLVESGGGLVQPGGSLRLSCAASGFTFSTYAMNWVRQAPGKGLEWVSRIRSKYNNYATYYADSVKDRFTISRDDSKNTLYLQMNSLRAEDTAVYYCARHGNFGNSYVSWFAYWGQGTMVTVSSASTKGPSVFPLAPCSRSTSESTAALGCLVKDYFPEPVTVSWNSGALTSGVHTFPAVLQSSGLYSLSSVVTVPSSNFGTQTYTCNVDHKPSNTKVDKTVGGGGSHHHHHHH
light chain, unfused: QAVVTQEPSLTVSPGGTVTLTCRSSTGAVTTSNYANWVQQKPGQAPRGLIGGTNKRAPGTPARFSGSLLGGKAALTLSGVQPEDEAEYYCALWYSNLWVFGGGTKLTVLGQPKAAPSVTLFPPSSEELQANKATLVCLISDFYPGAVTVAWKADSSPVKAGVETTTPSKQSNNKYAASSYLSLTPEQWKSHRSYSCQVTHEGSTVEKTVAPTECS
notes: member of group m20; also called EpCAM1.2-(H)-hu-1F3 Fab
For the molecule B5, the binding result in test [4], in [5] and in test [6] was “binds” throughout.

B6: OKT3 Fab (Fab, V domains shown)
VH: not shown
VL: QIVLTQSPAIMSASPGEKVTMTCSASSSVSYMNWYQQKSGTSPKRWIYDTSKLASGVPAHFRGSGSGTSYSLTISGMEAEDAATYYCQQWSSNPFTFGSGTKLEINR
notes: Anti-CD3 Fab; biotinylated in the assays
B6: the binding result in test [7] is recorded as “no binding (tested: about 80 nM (last point; axis to 100 nM))”; in [8] it was “no binding (tested: about 80 nM (last point; axis to 100 nM))”; in test [9] it was “no binding”.
